Assay results as given in US20100285015A1 (University of Pennsylvania, published 2010).

Biological target: T1, mouse HMGB1 (produced in E. coli (Sigma)) (mouse, UniProt P63158 1-215, limits assumed)
T1 construct: Bought reagent; also called late cytokine (HMGB1); recombinant HMGB1
T1 sequence (looked up): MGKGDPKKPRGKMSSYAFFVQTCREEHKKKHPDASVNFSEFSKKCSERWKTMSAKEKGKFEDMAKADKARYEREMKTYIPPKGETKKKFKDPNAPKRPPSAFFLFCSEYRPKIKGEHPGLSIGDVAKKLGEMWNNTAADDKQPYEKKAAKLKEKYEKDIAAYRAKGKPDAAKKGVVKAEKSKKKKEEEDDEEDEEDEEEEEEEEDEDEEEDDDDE
Test: agglutination of Ter119-TM loaded mouse RBCs after HMGB1 and anti-HMGB1 antibody
Description: Mouse and human RBCs were washed in PBS/3% BSA buffer, resuspended in the same buffer to 10% hematocrit and incubated with Ter119-TM (final concentration […]) for 1 h. […] Then cells were washed 3 times with PBS/BSA buffer and equimolar amount of mouse HMGB1 (produced in E. coli (Sigma)) was added to the assay for 30 min at room temperature. Then RBC were washed with PBS/BSA and brought to the final hematocrit of 1% and the monoclonal Ab to mouse HMGB1 (Sigma, dilution as per manufacturer) was added to the assay placed into a V-shaped plate (total volume-100 μl).

B1: Ter119scFv-TM (thrombomodulin) fusion protein (other)
chain: RSPWPGVPTSQVKLQESGGGLVQPGGSLKLSCVASGFTFRDHWMNWVRQAPGKTMEWIGDIRPDGSDTNYAPSVRNRFTISRDNARSILYLQMSNMRSDYTATYYCVRDSPTRAGLMDAWGQGASVTVLTGGGGSGGGGSGGGGSDIQMIQSPSVLSASVGDRVTLNCKASQNINKYLNWYQQKLGEAPKVLIYNTNNLQTGIPSRFSGSGSGTDFTLTISSLQPEDFATYFCFQHYTWPTFGGGTKLELKRASSSSGSSSSGAAALSALAKLQPTGSQCVEHECFALFQGPATFLDASQACQRLQGHLMTVRSSVAADVISLLLSQSSMDLGPWIGLQLPQGCDDPVHLGPLRGFQWVTGDNHTSYSRWARPNDQTAPLCGPLCVTVSTATEAAPGEPAWEEKPCETETQGFLCEFYFTASCRPLTVNTRDPEAAHISSTYNTPFGVSGADFQTLPVGSSAAVEPLGLELVCRAPPGTSEGHWAWEATGAWNCSVENGGCEYLCNRSTNEPRCLCPRDMDLQADGRSCARPVVQSCNELCEHFCVSNAEVPGSYSCMCETGYQLAADGHRCEDVDDCKQGPNPCPQLCVNTKGGFECFCYDGYELVDGECVELLDPCFGSNCEFQCQPVSPTDYRCICAPGFAPKPDEPHKCEMFCNETSCPADCDPNSPTVCECPEGFILDEGSVCTDIDECSQGECFTSECRNFPGSYECICGPDTALAGQISKDCDPIPVREDTKEEEGSGEPPVSPTPGSPTGPPSARPVHSDYKDHDGDYKDHDIDYKDDDDK
notes: Expressed in Drosophila S2 cells from a pMT/BiP/V5-HisA plasmid; Some assays used it directly from S2 cell medium; also called Ter119-TM
B1: binds.
